Test: soluble on expression in E. coli; label from the status in PepcDB or PDB records

| Sequence | soluble on expression in E. coli |
| --- | --- |
| MTIGQVNGRARIKSECGKDQKCMPLEDKWLLVPAFLKVRGLVKQHLVSFDHFVQEEIRSIMLSNQKITSDANPNFYLKYLDIRIGKPSSEEGLNMTHDKITPQECRLRDMTYSAPISVDIEYTRGNQRVFKKDLIIGRMPIMLRSSKCILRDLAEEELARVQECPYDPGGYFVVKGSEKVILIQEQLSKNRIMVGRNSSKELQCEVLSSTSERKSKTYVTMKKGKYSVRHNQLTDDVPVSIIFKAMGVESDFDIVSTIGHEEKYVSAFAQTLEESINAGVYTQQQALAYVTSKVKARKFTPFGSLPGTSVSVLTPPKEHEAVDFLSNSMITHIACPDGNFKMKAIYLGLMTRRLIQTELGENGLDDRDFYGNKRLELAGSLLSLLFEDVFKRFNSELKRIADNALMKTMAAPLDIVKHMRQDMITNTIVNAMSTGNWIIKRFRMERLGVTQVLSRLSYISALGMMTRINSTFEKTRKVSGPRSLQPSQWGMLCPSDTPEGEACGLVKNLALISHITTDSDEKPVLRLLLNSGVEDLHNVHFSHVNKPENTLIFLNGVLIGTAVDPERVVKAVRDLRRSGLLSEFVSVSRSLTNRSVFISSDGGRLCRPYIIVKNGTPMLTQAHVQELKEGKMIFEDFVDDGIVEYLDVNEMNDALIAVYGREIGPETTHLEIEPFTLLGVCAGLIPYPHHNQSPRNTYQCAMGKQAMGTIAYNQQKRIDSIMYLLCYPQRPLVKSKTIELTNFEKLPAGANGIIAVMSYSGYDIEDALVLNKASLDRGYGRCLVYKHVKGTAKKYPNQTFDRLLGPALDPNTRKPIFKHKNLDQEGIVFAGARIMPKQTIINKHMPVVSGESGPGASASANTIGIAGRQVDYKDVSITYKTPTPSYAERVLLTYNEDEAHLFKVLLRQTRRPELGDKFSSRHGQKGVCGLIAQQEDMPFNDLGMVPDMIMNPHGYPSRMTVGKLMELLSGKAGVVNGTYHYGTAFGGDQVKDVCEELAACGYNYMGKDMLTSGITGQPLSAYIYFGPIYYQKLKHMVLDKMHARARGPRAALTRQPTEGRSREGGLRLGEMERDCLIAYGASMLLIERLMVSSDEFKVDVCTGCGVIGSKGWCQKCRSSKSMANIKIPYACKLLFQELQSMNIVPRLDLARYTE | not soluble |
| MKRIGIDVGGTNTDAVLIDGDTIVASIKVPTTQDVLSGVKAALAHVAGHVGAADRPIDAVMIGTTHFTNAVVERARLERVAALRIALPTGSSLPPMCDWPKDLHDAVDPLIFMVHGGHEYDGSPLVPMIPDEIREAAMKIRDAGITSIAISATFSPLTTECEVRAAEIVRSVIPDARITLSHTLGRIGLLERENVALLNAALQTLGKTTVQAFSDALREAGVKAPFYLTQNDGTVSLADVAAANPVHSFASGPTNSMRGAAFLTGLSDAMVVDVGGTTSDIGCLVGGFPREANNIVHIGGVRTLFRMPDLLPIALGGGTIVDPETGKIGPRSVGYRILTEARVFGGETLTTSDIAVAAGLIEIGDRDRVKDLDSTFVQATLQRIRNMVADSFDQMKTSAEDVPLVAVGGGAFLIPETVPGASDVLRVENAGVANALGAAMAQVSGEVDQVFSGLSRDEALAKAETEAQNAAVASGAERTSLKTLEVEDIPIAYLPGGARRVRVRVIGDIAFHLEHHHHHH | not soluble |
| MGSDKIHHHHHHMRAPQAQSKLSEVLEFLQQYEGTINPNKLIFGRWIKDAQALRLVDPSEGYMMEAWVYRAQGKLDKALEYMKNAYRLDSSSSSVNVNYASLLLSSGDFNESEKLCIKRIRLDRTNTDIFKILITNTLHTFNQDALFEAIELFIPTNPEAEKVIGQAKKRIFDFDHMQSTLESANLSIEVYKRFSSITQKVRNTRYIGESRTVINCEVNELGTFLLIDEALVNASIEDCLSMYDDLVEEIINDDHYFEEYKKIIFNFIPTTSTAINSAYQLEI | not soluble |
| MMNEYRFHLEKYRLGNRYTCPNCERKRCFTRYIDDEGEVSFPDNVGKCDHEHSCGYHYTPKDYFREHPDFLSKDKLPYPTRGNTQPKVVEKPISYIANAIMERSLSHYGINPLYQYLSKVFGEQETERLMKMYHVGTSYKWGGSTIYWQVDKDDKVRTGKVMLYNPKDGHRVKEPRSYVGWAHAFLHLPDFNLCQCFFGEHLLAQHPTMSVAIVESEKTAIIASHFIPNFIWLATGGMHGCLNQIAVKVLGGRDIILFPDLGATDKWKSKIPLLQSVCKRVVISNILEDNATDEQKTKGLDIADFLLMAETPQMALQRLIKQHPPLKHLIDCLGLVLVEES | not soluble |

Source: the DeepSol protein solubility set
